Laboratory results taken from paper PMC7736794.

Target: T1, PrimPol (endogenous, OVCAR8), Q96LW4
T1 chain: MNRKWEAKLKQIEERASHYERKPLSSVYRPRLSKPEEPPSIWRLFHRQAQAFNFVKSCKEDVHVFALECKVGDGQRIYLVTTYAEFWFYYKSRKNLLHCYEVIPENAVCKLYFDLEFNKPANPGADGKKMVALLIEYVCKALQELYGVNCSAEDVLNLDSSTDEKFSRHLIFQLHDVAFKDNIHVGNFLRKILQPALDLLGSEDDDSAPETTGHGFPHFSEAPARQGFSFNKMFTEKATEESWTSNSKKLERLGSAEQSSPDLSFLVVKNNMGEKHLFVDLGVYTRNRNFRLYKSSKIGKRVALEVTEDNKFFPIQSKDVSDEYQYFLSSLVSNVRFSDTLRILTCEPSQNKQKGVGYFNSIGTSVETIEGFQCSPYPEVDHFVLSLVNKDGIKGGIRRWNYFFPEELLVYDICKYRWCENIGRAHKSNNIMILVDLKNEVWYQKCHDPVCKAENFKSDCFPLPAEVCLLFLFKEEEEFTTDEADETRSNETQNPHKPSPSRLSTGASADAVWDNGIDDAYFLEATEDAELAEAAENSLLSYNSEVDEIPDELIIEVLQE
Assay: in situ proximity ligation assay (PLA)
Conditions: chain shown with the change, USP36 stably knock-down OVCAR8 cells, read off a plot

B1: USP36-wild-type (WT), transfected in OVCAR8, Q9P275 K329R; K338R (protein)
chain: MPIVDKLKEALKPGRKDSADDGELGKLLASSAKKVLLQKIEFEPASKSFSYQLEALKSKYVLLNPKTEGASRHKSGDDPPARRQGSEHTYESCGDGVPAPQKVLFPTERLSLRWERVFRVGAGLHNLGNTCFLNATIQCLTYTPPLANYLLSKEHARSCHQGSFCMLCVMQNHIVQAFANSGNAIKPVSFIRDLKKIARHFRFGNQEDAHEFLRYTIDAMQKACLNGCAKLDRQTQATTLVHQIFGGYLRSRVKCSVCKSVSDTYDPYLDVALEIRQAANIVRALELFVKADVLSGENAYMCAKCKKKVPASKRFTIHRTSNVLTLSLRRFANFSGGRITKDVGYPEFLNIRPYMSQNNGDPVMYGLYAVLVHSGYSCHAGHYYCYVKASNGQWYQMNDSLVHSSNVKVVLNQQAYVLFYLRIPGSKKSPEGLISRTGSSSLPGRPSVIPDHSKKNIGNGIISSPLTGKRQDSGTMKKPHTTEEIGVPISRNGSTLGLKSQNGCIPPKLPSGSPSPKLSQTPTHMPTILDDPGKKVKKPAPPQHFSPRTAQGLPGTSNSNSSRSGSQRQGSWDSRDVVLSTSPKLLATATANGHGLKGNDESAGLDRRGSSSSSPEHSASSDSTKAPQTPRSGAAHLCDSQETNCSTAGHSKTPPSGADSKTVKLKSPVLSNTTTEPASTMSPPPAKKLALSAKKASTLWRATGNDLRPPPPSPSSDLTHPMKTSHPVVASTWPVHRARAVSPAPQSSSRLQPPFSPHPTLLSSTPKPPGTSEPRSCSSISTALPQVNEDLVSLPHQLPEASEPPQSPSEKRKKTFVGEPQRLGSETRLPQHIREATAAPHGKRKRKKKKRPEDTAASALQEGQTQRQPGSPMYRREGQAQLPAVRRQEDGTQPQVNGQQVGCVTDGHHASSRKRRRKGAEGLGEEGGLHQDPLRHSCSPMGDGDPEAMEESPRKKKKKKRKQETQRAVEEDGHLKCPRSAKPQDAVVPESSSCAPSANGWCPGDRMGLSQAPPVSWNGERESDVVQELLKYSSDKAYGRKVLTWDGKMSAVSQDAIEDSRQARTETVVDDWDEEFDRGKEKKIKKFKREKRRNFNAFQKLQTRRNFWSVTHPAKAASLSYRR
HU (10 mM) for 4 h, parent: est. 17
  response (PLA puncta / cell): 15
Untreated (Ctrl), parent: est. 11
  response (PLA puncta / cell): 15
